Measurements taken from publication PMC6032869 (Allergy, 2018).

How the values were obtained:
[1] = molecular target: T1, recombinant Bet v 1, major birch pollen allergen (Betula pendula (B. verrucosa), UniProt P15494); assay: cell-based or functional assay
[2] = molecular target: T2, Aln g 1, Bet v 1-related allergen from alder (Alnus glutinosa, UniProt P38948); assay: ELISA; inhibition ELISA: plate-bound allergen (1 ug/mL) pre-incubated with 20 ug/mL H3-1 or control ScFv, then sera of birch pollen-allergic patients diluted 1:5; bound IgE detected; % reduction against control ScFv; conditions: both partners purified
T2 construct: Aln g 1, alder pollen allergen, Swissprot P38948; source: recombinant; materials described in Data S1
Target sequence in this assay (P38948 whole entry, looked up): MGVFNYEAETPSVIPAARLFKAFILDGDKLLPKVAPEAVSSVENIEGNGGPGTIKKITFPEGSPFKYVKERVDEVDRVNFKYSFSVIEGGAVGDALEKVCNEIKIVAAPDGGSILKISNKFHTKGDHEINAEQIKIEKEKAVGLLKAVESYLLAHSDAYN

[3] = molecular target: T1, recombinant Bet v 1, major birch pollen …; assay: as above; conditions: both partners purified
[4] = molecular target: T3, Cor a 1, Bet v 1-related allergen from hazel (Corylus avellana, UniProt Q08407); assay: as above; conditions: both partners purified
T3 construct: Cor a 1, hazel allergen, Swissprot Q08407; source: recombinant; materials described in Data S1
Target sequence in this assay (Q08407 whole entry, looked up): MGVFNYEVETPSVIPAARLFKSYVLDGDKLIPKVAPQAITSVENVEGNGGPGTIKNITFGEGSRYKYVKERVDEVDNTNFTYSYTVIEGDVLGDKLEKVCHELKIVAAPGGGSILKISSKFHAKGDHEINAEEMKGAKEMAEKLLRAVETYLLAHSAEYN

[5] = molecular target: T4, Mal d 1, Bet v 1-related allergen from apple (Malus domestica, UniProt Q9SYW3); assay: as above; conditions: both partners purified
T4 construct: Mal d 1, apple allergen, Swissprot Q9SYW3; source: recombinant; materials described in Data S1
T4 sequence (Q9SYW3 entry or part of it): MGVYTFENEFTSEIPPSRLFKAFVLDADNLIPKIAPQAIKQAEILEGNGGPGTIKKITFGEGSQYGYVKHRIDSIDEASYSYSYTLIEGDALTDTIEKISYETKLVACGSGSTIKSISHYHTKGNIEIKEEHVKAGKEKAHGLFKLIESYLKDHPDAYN

[6] = molecular target: T2, Aln g 1, Bet v 1-related allergen from …; assay: SPR; Biacore 2000, 25°C; allergens amine-coupled to CM5 chip; reference cell BSA; H3-1 in HBS-EP pH 7.4 injected in twofold increasing concentrations at 30 uL/min; 1:1 interaction model; conditions: both partners purified
[7] = molecular target: T1, recombinant Bet v 1, major birch pollen …; assay: as above; conditions: both partners purified
[8] = molecular target: T3, Cor a 1, Bet v 1-related allergen from …; assay: as above; conditions: both partners purified
[9] = molecular target: T4, Mal d 1, Bet v 1-related allergen from …; assay: as above; conditions: both partners purified
[10] = molecular target: T2, Aln g 1, Bet v 1-related allergen from …; assay: ELISA; inhibition ELISA: plate-bound allergen (1 ug/mL) pre-incubated with 20 ug/mL H3-1 or control ScFv, then sera of birch pollen-allergic patients diluted 1:5; bound IgE detected; % reduction against control ScFv; conditions: both partners purified; remark: listed apart in the source
Target sequence in this assay (P38948 whole entry, looked up): as the sequence (P38948 whole entry, looked up) above

[11] = molecular target: T3, Cor a 1, Bet v 1-related allergen from …; assay: as above; conditions: both partners purified; remark: listed apart in the source
Target sequence in this assay (Q08407 whole entry, looked up): as the sequence (Q08407 whole entry, looked up) above

[12] = molecular target: T4, Mal d 1, Bet v 1-related allergen from …; assay: as above; conditions: both partners purified; remark: listed apart in the source
[13] = molecular target: T5, bovine serum albumin (Bos taurus, UniProt P02769); assay: ELISA; allergens, fragments, peptides or BSA coated at 4 ug/mL in 1xPBS; blocked with 1xPBS/3% BSA; 1 ug/mL H3-1 added; bound ScFv traced with anti-E Tag antibody; conditions: both partners purified
T5 construct: bovine serum albumin, control protein; also called BSA
T5 sequence (P02769 25-607): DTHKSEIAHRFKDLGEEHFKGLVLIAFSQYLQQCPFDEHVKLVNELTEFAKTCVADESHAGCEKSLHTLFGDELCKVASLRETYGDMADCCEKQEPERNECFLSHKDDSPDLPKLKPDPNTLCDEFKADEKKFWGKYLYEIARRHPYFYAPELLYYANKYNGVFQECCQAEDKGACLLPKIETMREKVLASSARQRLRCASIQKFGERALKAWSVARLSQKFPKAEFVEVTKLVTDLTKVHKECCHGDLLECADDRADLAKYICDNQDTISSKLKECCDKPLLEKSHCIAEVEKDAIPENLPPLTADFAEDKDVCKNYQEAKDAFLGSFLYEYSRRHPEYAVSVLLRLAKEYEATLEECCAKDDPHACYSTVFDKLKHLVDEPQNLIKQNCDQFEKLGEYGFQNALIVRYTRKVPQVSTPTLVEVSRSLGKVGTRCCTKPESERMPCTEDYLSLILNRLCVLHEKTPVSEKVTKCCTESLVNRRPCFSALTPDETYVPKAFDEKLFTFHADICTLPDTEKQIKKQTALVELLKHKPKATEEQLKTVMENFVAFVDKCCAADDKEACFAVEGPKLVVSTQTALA

[14] = molecular target: T6, synthetic Bet v 1-derived peptide 5 (aa 130-160) (Betula pendula, UniProt P15494); assay: as above; conditions: both partners purified
T6 construct: Bet v 1, birch, Swissprot P15494, C-terminal peptide aa 130-160; also called C-terminal peptide 5; source: synthetic peptide
T6 chain: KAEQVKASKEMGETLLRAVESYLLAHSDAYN

B1: Bet v 1-specific IgG-derived ScFv H3-1 (scFv, V domains shown)
VH: QVQLVQSGAEVKKPGSSVKVSCKASGGTFSSYAISWVRQAPGQGLEWMGRIIPILGIVNYAQKFQGRVTITADKSTSTAYMELSSLRSEDTAVYYCAREPLGYCSGGSCYPLHNGMDVWGQGTTVTVSS
VL: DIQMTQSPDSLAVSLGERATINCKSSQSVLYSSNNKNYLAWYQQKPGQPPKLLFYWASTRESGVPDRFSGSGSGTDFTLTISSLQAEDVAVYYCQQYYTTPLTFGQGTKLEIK
notes: VH of H3-1 (H3-1_HV); (Gly4Ser)3 linker; V kappa of H3-1 (H3-1_KV); Cloned in phagemid pCANTAB 5E; The E tag is named for the direct ELISA (detection with anti-E Tag antibody); A form with a C-terminal His tag was also constructed; also called ScFv (clone H3-1); H3-1 ScFv; source: also tested as soluble ScFv after conversion of phage clones; not shown: E tag, C-terminal, kept
Bet v 1-induced basophil activation (CD203c upregulation), blood of patient #12; Bet v 1 pre-incubated with H3-1 against control ScFv [1]: ~5 fold | Bet v 1-induced basophil activation (CD203c upregulation), blood of patient #14; Bet v 1 pre-incubated with H3-1 against control ScFv; augmentation, not reduction [1]: ~5 fold | Bet v 1-induced basophil activation (CD203c upregulation), blood of patient #22; Bet v 1 pre-incubated with H3-1 against control ScFv [1]: ~25 fold | Bet v 1-induced basophil activation (CD203c upregulation), blood of patient #26; Bet v 1 pre-incubated with H3-1 against control ScFv [1]: ~5 fold | % inhibition of IgE binding, patient 1 [2]: 8.2% | % inhibition of IgE binding, patient 7 [2]: 6.3% | % inhibition of IgE binding, patient 9 [2]: 15.3% | % inhibition of IgE binding, patient 11 [2]: 22.5% | % inhibition of IgE binding, patient 12 [2]: 14.5% | % inhibition of IgE binding, patient 13 [2]: 11.4% | % inhibition of IgE binding, patient 16 [2]: 16.3% | % inhibition of IgE binding, patient 17 [2]: 25% | % inhibition of IgE binding, patient 19 [2]: 16.5% | % inhibition of IgE binding, patient 20 [2]: 6.9% | % inhibition of IgE binding, patient 21 [2]: 13.4% | % inhibition of IgE binding, patient 22 [2]: 37.1% | % inhibition of IgE binding, patient 23 [2]: 6.2% | % inhibition of IgE binding, patient 24 [2]: 12.9% | % inhibition of IgE binding, patient 25 [2]: 17.5% | % inhibition of IgE binding, patient 26 [2]: 23.7% | % inhibition of IgE binding, patient 27 [2]: 26.1% | % inhibition of IgE binding, patient 28 [2]: 26.1% | % inhibition of IgE binding, patient 30 [2]: 10.7% | mean % inhibition of patients' IgE binding [2]: 13.2% | % inhibition of IgE binding, patient 1 [3]: 60.9% | % inhibition of IgE binding, patient 5 [3]: 27.6% | % inhibition of IgE binding, patient 7 [3]: 42.2% | % inhibition of IgE binding, patient 9 [3]: 52.8% | % inhibition of IgE binding, patient 10 [3]: 41.7% | % inhibition of IgE binding, patient 11 [3]: 51.3% | % inhibition of IgE binding, patient 12 [3]: 61.4% | % inhibition of IgE binding, patient 13 [3]: 50.5% | % inhibition of IgE binding, patient 16 [3]: 49.2% | % inhibition of IgE binding, patient 17 [3]: 51% | % inhibition of IgE binding, patient 18 [3]: 57.4% | % inhibition of IgE binding, patient 19 [3]: 54.6% | % inhibition of IgE binding, patient 20 [3]: 15.8% | % inhibition of IgE binding, patient 21 [3]: 44.9% | % inhibition of IgE binding, patient 22 [3]: 62.9% | % inhibition of IgE binding, patient 23 [3]: 47.3% | % inhibition of IgE binding, patient 24 [3]: 44.3% | % inhibition of IgE binding, patient 25 [3]: 62.9% | % inhibition of IgE binding, patient 26 [3]: 50.6% | % inhibition of IgE binding, patient 27 [3]: 62.1% | % inhibition of IgE binding, patient 29 [3]: 38.8% | % inhibition of IgE binding, patient 30 [3]: 56.8% | mean % inhibition of patients' IgE binding [3]: 45% | % inhibition of IgE binding, patient 1 [4]: 32.7% | % inhibition of IgE binding, patient 5 [4]: 29% | % inhibition of IgE binding, patient 7 [4]: 19% | % inhibition of IgE binding, patient 9 [4]: 48.9% | % inhibition of IgE binding, patient 10 [4]: 8.6% | % inhibition of IgE binding, patient 12 [4]: 44.9% | % inhibition of IgE binding, patient 13 [4]: 35% | % inhibition of IgE binding, patient 16 [4]: 18.4% | % inhibition of IgE binding, patient 17 [4]: 43% | % inhibition of IgE binding, patient 18 [4]: 40.9% | % inhibition of IgE binding, patient 19 [4]: 33.6% | % inhibition of IgE binding, patient 20 [4]: 33.9% | % inhibition of IgE binding, patient 21 [4]: 6% | % inhibition of IgE binding, patient 22 [4]: 53.7% | % inhibition of IgE binding, patient 23 [4]: 21.1% | % inhibition of IgE binding, patient 24 [4]: 36% | % inhibition of IgE binding, patient 25 [4]: 57.6% | % inhibition of IgE binding, patient 26 [4]: 22% | % inhibition of IgE binding, patient 27 [4]: 31.2% | % inhibition of IgE binding, patient 28 [4]: 45.1% | % inhibition of IgE binding, patient 29 [4]: 39.6% | % inhibition of IgE binding, patient 30 [4]: 29.5% | mean % inhibition of patients' IgE binding [4]: 29.1% | % inhibition of IgE binding, patient 1 [5]: 8.6% | % inhibition of IgE binding, patient 5 [5]: 3.6% | % inhibition of IgE binding, patient 9 [5]: 10.9% | % inhibition of IgE binding, patient 10 [5]: 10.5% | % inhibition of IgE binding, patient 11 [5]: 19.1% | % inhibition of IgE binding, patient 12 [5]: 22.4% | % inhibition of IgE binding, patient 13 [5]: 27.4% | % inhibition of IgE binding, patient 16 [5]: 2.3% | % inhibition of IgE binding, patient 17 [5]: 40.5% | % inhibition of IgE binding, patient 18 [5]: 17.1% | % inhibition of IgE binding, patient 19 [5]: 15.3% | % inhibition of IgE binding, patient 20 [5]: 16.5% | % inhibition of IgE binding, patient 21 [5]: 11.9% | % inhibition of IgE binding, patient 22 [5]: 26.3% | % inhibition of IgE binding, patient 23 [5]: 3% | % inhibition of IgE binding, patient 24 [5]: 19.3% | % inhibition of IgE binding, patient 25 [5]: 17.9% | % inhibition of IgE binding, patient 26 [5]: 19.7% | % inhibition of IgE binding, patient 27 [5]: 27.4% | % inhibition of IgE binding, patient 28 [5]: 8.2% | % inhibition of IgE binding, patient 29 [5]: 22.5% | mean % inhibition of patients' IgE binding [5]: 16.1% | Kd [6]: 2.96 nM | koff [6]: 0.00112 s⁻¹ | kon [6]: 378000 M⁻¹ s⁻¹ | Kd [7]: 0.622 nM | koff [7]: 0.00022 s⁻¹ | kon [7]: 353000 M⁻¹ s⁻¹ | Kd [8]: 6.83 nM | koff [8]: 0.000299 s⁻¹ | kon [8]: 43800 M⁻¹ s⁻¹ | Kd [9]: 2.57 nM | koff [9]: 0.000145 s⁻¹ | kon [9]: 56400 M⁻¹ s⁻¹ | mean % inhibition of patients' IgE binding [10]: 11.9% | mean % inhibition of patients' IgE binding [11]: 24.3% | mean % inhibition of patients' IgE binding [12]: 13.5% | binding result [13]: no binding (tested: 1 μg/mL H3-1) | binding result [14]: binds
